Test results taken from US20120316071A1 (published 2012).
Changes are numbered by the printed parent chain. Names may count otherwise.

B1: Fab VH5-51_IGHD5-18*01>3_IGHJ4*01 G100K/G104T G24T/S28R/G35V (H:KT TRV) & V3-4_IGLJ1*01 (Fab, V domains shown)
VH: EVQLVQSGAEVKKPGESLKISCKTSGYRFTSYWIVWVRQMPGKGLEWMGIIYPGDSDTRYSPSFQGQVTISADKSISTAYLQWSSLKASDTAMYYCARRKYSYTYDYFDYWGQGTLVTVSS
VL: QTVVTQEPSFSVSPGGTVTLTCGLSSGSVSTSYYPSWYQQTPGQAPRTLIYSTNTRSSGVPDRFSGSILGNKAALTITGAQADDESDYYCVLYMGSGISYVFGTGTKVTVL
notes: Fab with the parent (unmutated) light chain; expressed from plasmid A (CH1, His6 and Flag tags) and plasmid E (lambda CL); also called H:KT TRV & L:wt
B2: Fab VH5-51_IGHD5-18*01>3_IGHJ4*01 G100K/G104T G24T/S28R/G35V (H:KT TRV) & V3-4_IGLJ1*01 M94A (Fab, V domains shown)
VH: B1 VH
VL: B1 VL with M94A
notes: Fab; expressed from plasmid A (CH1, His6 and Flag tags) and plasmid E (lambda CL)
B3: Fab VH5-51_IGHD5-18*01>3_IGHJ4*01 G100K/G104T G24T/S28R/G35V (H:KT TRV) & V3-4_IGLJ1*01 M94D (Fab, V domains shown)
VH: B1 VH
VL: B1 VL with M94D
notes: as for B2
B4: Fab VH5-51_IGHD5-18*01>3_IGHJ4*01 G100K/G104T G24T/S28R/G35V (H:KT TRV) & V3-4_IGLJ1*01 M94E (Fab, V domains shown)
VH: B1 VH
VL: B1 VL with M94E
notes: as for B2
B5: Fab VH5-51_IGHD5-18*01>3_IGHJ4*01 G100K/G104T G24T/S28R/G35V (H:KT TRV) & V3-4_IGLJ1*01 M94F (Fab, V domains shown)
VH: B1 VH
VL: B1 VL with M94F
notes: as for B2
B6: Fab VH5-51_IGHD5-18*01>3_IGHJ4*01 G100K/G104T G24T/S28R/G35V (H:KT TRV) & V3-4_IGLJ1*01 M94G (Fab, V domains shown)
VH: B1 VH
VL: B1 VL with M94G
notes: as for B2
B7: Fab VH5-51_IGHD5-18*01>3_IGHJ4*01 G100K/G104T G24T/S28R/G35V (H:KT TRV) & V3-4_IGLJ1*01 M94L (Fab, V domains shown)
VH: B1 VH
VL: B1 VL with M94L
notes: as for B2
B8: Fab VH5-51_IGHD5-18*01>3_IGHJ4*01 G100K/G104T G24T/S28R/G35V (H:KT TRV) & V3-4_IGLJ1*01 M94N (Fab, V domains shown)
VH: B1 VH
VL: B1 VL with M94N
notes: as for B2
B9: Fab VH5-51_IGHD5-18*01>3_IGHJ4*01 G100K/G104T G24T/S28R/G35V (H:KT TRV) & V3-4_IGLJ1*01 M94P (Fab, V domains shown)
VH: B1 VH
VL: B1 VL with M94P
notes: as for B2
B10: Fab VH5-51_IGHD5-18*01>3_IGHJ4*01 G100K/G104T G24T/S28R/G35V (H:KT TRV) & V3-4_IGLJ1*01 M94R (Fab, V domains shown)
VH: B1 VH
VL: B1 VL with M94R
notes: as for B2
B11: Fab VH5-51_IGHD5-18*01>3_IGHJ4*01 G100K/G104T G24T/S28R/G35V (H:KT TRV) & V3-4_IGLJ1*01 M94S (Fab, V domains shown)
VH: B1 VH
VL: B1 VL with M94S
notes: as for B2
B12: Fab VH5-51_IGHD5-18*01>3_IGHJ4*01 G100K/G104T G24T/S28R/G35V (H:KT TRV) & V3-4_IGLJ1*01 M94T (Fab, V domains shown)
VH: B1 VH
VL: B1 VL with M94T
notes: as for B2
B13: Fab VH5-51_IGHD5-18*01>3_IGHJ4*01 G100K/G104T G24T/S28R/G35V (H:KT TRV) & V3-4_IGLJ1*01 M94V (Fab, V domains shown)
VH: B1 VH
VL: B1 VL with M94V
notes: as for B2
B14: Fab VH5-51_IGHD5-18*01>3_IGHJ4*01 G100K/G104T G24T/S28R/G35V (H:KT TRV) & V3-4_IGLJ1*01 N54A (Fab, V domains shown)
VH: B1 VH
VL: B1 VL with N54A
notes: as for B2
B15: Fab VH5-51_IGHD5-18*01>3_IGHJ4*01 G100K/G104T G24T/S28R/G35V (H:KT TRV) & V3-4_IGLJ1*01 R56A (Fab, V domains shown)
VH: B1 VH
VL: B1 VL with R56A
notes: as for B2
B16: Fab VH5-51_IGHD5-18*01>3_IGHJ4*01 G100K/G104T G24T/S28R/G35V (H:KT TRV) & V3-4_IGLJ1*01 S57A (Fab, V domains shown)
VH: B1 VH
VL: B1 VL with S57A
notes: as for B2
B17: Fab VH5-51_IGHD5-18*01>3_IGHJ4*01 G100K/G104T G24T/S28R/G35V (H:KT TRV) & V3-4_IGLJ1*01 S58A (Fab, V domains shown)
VH: B1 VH
VL: B1 VL with S58A
notes: as for B2
B18: Fab VH5-51_IGHD5-18*01>3_IGHJ4*01 G100K/G104T G24T/S28R/G35V (H:KT TRV) & V3-4_IGLJ1*01 S96G (Fab, V domains shown)
VH: B1 VH
VL: B1 VL with S96G
notes: as for B2
B19: Fab VH5-51_IGHD5-18*01>3_IGHJ4*01 G100K/G104T G24T/S28R/G35V (H:KT TRV) & V3-4_IGLJ1*01 S96W (Fab, V domains shown)
VH: B1 VH
VL: B1 VL with S96W
notes: as for B2
B20: Fab VH5-51_IGHD5-18*01>3_IGHJ4*01 G100K/G104T G24T/S28R/G35V (H:KT TRV) & V3-4_IGLJ1*01 T55A (Fab, V domains shown)
VH: B1 VH
VL: B1 VL with T55A
notes: as for B2
B21: Fab VH5-51_IGHD5-18*01>3_IGHJ4*01 G100K/G104T G24T/S28R/G35V (H:KT TRV) & V3-4_IGLJ1*01 V91A (Fab, V domains shown)
VH: B1 VH
VL: B1 VL with V91A
notes: as for B2
B22: Fab VH5-51_IGHD5-18*01>3_IGHJ4*01 G100K/G104T G24T/S28R/G35V (H:KT TRV) & V3-4_IGLJ1*01 V91C (Fab, V domains shown)
VH: B1 VH
VL: B1 VL with V91C
notes: as for B2
B23: Fab VH5-51_IGHD5-18*01>3_IGHJ4*01 G100K/G104T G24T/S28R/G35V (H:KT TRV) & V3-4_IGLJ1*01 V91E (Fab, V domains shown)
VH: B1 VH
VL: B1 VL with V91E
notes: as for B2
B24: Fab VH5-51_IGHD5-18*01>3_IGHJ4*01 G100K/G104T G24T/S28R/G35V (H:KT TRV) & V3-4_IGLJ1*01 V91G (Fab, V domains shown)
VH: B1 VH
VL: B1 VL with V91G
notes: as for B2
B25: Fab VH5-51_IGHD5-18*01>3_IGHJ4*01 G100K/G104T G24T/S28R/G35V (H:KT TRV) & V3-4_IGLJ1*01 V91H (Fab, V domains shown)
VH: B1 VH
VL: B1 VL with V91H
notes: as for B2
B26: Fab VH5-51_IGHD5-18*01>3_IGHJ4*01 G100K/G104T G24T/S28R/G35V (H:KT TRV) & V3-4_IGLJ1*01 V91I (Fab, V domains shown)
VH: B1 VH
VL: B1 VL with V91I
notes: as for B2
B27: Fab VH5-51_IGHD5-18*01>3_IGHJ4*01 G100K/G104T G24T/S28R/G35V (H:KT TRV) & V3-4_IGLJ1*01 V91L (Fab, V domains shown)
VH: B1 VH
VL: B1 VL with V91L
notes: as for B2
B28: Fab VH1-46_IGHD6-6*01_IGHJ1*01 S102A/S103P/S104F/H111F (APFF) & L6_IGKJ1*01 S31R (Fab, V domains shown)
VH: QVQLVQSGAEVKKPGASVKVSCKASGYTFTSYYMHWVRQAPGQGLEWMGIINPSGGSTSYAQKFQGRVTMTRDTSTSTVYMELSSLRSEDTAVYYCAREEYAPFSAEYFQFWGQGTLVTVSS
VL: EIVLTQSPATLSLSPGERATLSCRASQSVSRYLAWYQQKPGQAPRLLIYDASNRATGIPARFSGSGSGTDFTLTISSLEPEDFAVYYCQQRSNWPPWTFGQGTKVEIKR
notes: Fab made in E. coli; The constant parts (CH1 with His6 and Flag tags from plasmid A, kappa CL from plasmid C) are not added here; also called APFF & S31R
B29: Fab VH1-46_IGHD6-6*01_IGHJ1*01 S102A/S103P/S104F/H111F (APFF) & L6_IGKJ1*01 S31T (Fab, V domains shown)
VH: B28 VH
VL: B28 VL with R31T
notes: Fab made in E. coli; The constant parts (CH1 with His6 and Flag tags from plasmid A, kappa CL from plasmid C) are not added here; also called APFF & S31T
B30: Fab VH1-46_IGHD6-6*01_IGHJ1*01 S102A/S103P/S104F/H111F (APFF) & L6_IGKJ1*01 S31V (Fab, V domains shown)
VH: B28 VH
VL: B28 VL with R31V
notes: Fab made in E. coli; The constant parts (CH1 with His6 and Flag tags from plasmid A, kappa CL from plasmid C) are not added here; also called APFF & S31V
B31: Fab VH1-46_IGHD6-6*01_IGHJ1*01 S102A/S103P/S104F/H111F (APFF) & L6_IGKJ1*01 S31Y (Fab, V domains shown)
VH: B28 VH
VL: B28 VL with R31Y
notes: Fab made in E. coli; The constant parts (CH1 with His6 and Flag tags from plasmid A, kappa CL from plasmid C) are not added here; also called APFF & S31Y

molecular target: T1, Recombinant Human DLL4 (human, UniProt Q9NR61 27-524); assay: ELISA, DLL4 coated on the plate, Fab at 100 nM, signal minus blank
T1 construct: Bought recombinant human DLL4 (R&D Systems Cat#1506-D4/CF); also called delta-like protein 4; Delta-like 4

Going from B1 to B2, the “ELISA Signal-blank (100 nM Fab)” value falls from 0.393 to 0.216.

Going from B3 to B4, the “ELISA Signal-blank (100 nM Fab)” value rises from 0.07 to 0.171.

Compared with B5, B6 is lower in “ELISA Signal-blank (100 nM Fab)” value: 0.317 for the first, 0.199 for the second.

Compared with B7, B8 is lower in “ELISA Signal-blank (100 nM Fab)” value: 0.388 for the first, 0.205 for the second.

Compared with B9, B10 is lower in “ELISA Signal-blank (100 nM Fab)” value: 0.256 for the first, 0.197 for the second.

Compared with B11, B12 is higher in “ELISA Signal-blank (100 nM Fab)” value: 0.195 for the first, 0.395 for the second.

Compared with B13, B14 is higher in “ELISA Signal-blank (100 nM Fab)” value: 0.315 for the first, 0.318 for the second.

Compared with B15, B16 is higher in “ELISA Signal-blank (100 nM Fab)” value: 0.442 for the first, 0.598 for the second.

Compared with B17, B18 is higher in “ELISA Signal-blank (100 nM Fab)” value: 0.451 for the first, 0.562 for the second.

Going from B19 to B20, the “ELISA Signal-blank (100 nM Fab)” value rises from 0.261 to 0.382.

Compared with B21, B22 is higher in “ELISA Signal-blank (100 nM Fab)” value: 0.529 for the first, 0.625 for the second.

Compared with B23, B24 is higher in “ELISA Signal-blank (100 nM Fab)” value: 0.152 for the first, 0.248 for the second.

Compared with B25, B26 is higher in “ELISA Signal-blank (100 nM Fab)” value: 0.127 for the first, 0.336 for the second.

With B27 the “ELISA Signal-blank (100 nM Fab)” value was 0.734.

molecular target: T2, Recombinant Human DLL4 (delta-like protein 4) (human, UniProt Q9NR61 27-524); assay: ECL (MSD) multispot binding assay, antigen spotted on plate, Fab in solution;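 also: purified Fab incubated 1 h at 20 °C, detected via TAG-labelled antibody electrochemiluminescence, antigen spot compared with the blank in the same well, ratio at least 4 counted as hit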
T2 construct: Bought recombinant human DLL4 (R&D Systems Cat#1506-D4/CF); also called rHuman DLL4

First: B28
Second: B29
The “ECL signal” value of the first is lower: 166000 for the first, 191000 for the second.

With B31 the “ECL signal” value was 188000.

First: B28
Second: B29
The Signal/Blank of the first is lower: 558 for the first, 576 for the second.

First: B30
Second: B31
The Signal/Blank of the first is lower: 511 for the first, 662 for the second.
